Experimental data as given in patent publication US20170240635A1 (AGENCY FOR SCIENCE TECHNOLOGY AND RESEARCH, published 2017).
Numbering of substitutions follows the chain as printed.

Columns and labels:
[1] = target: T1, human PD-L1 coupled to human Fc (human, UniProt Q9NZQ7 19-239, limits assumed); test: ELISA; antigen coated 350 ng/well, goat anti-human Fab-HRP, absorbance 450-670 nm
T1 construct: ELISA coating antigen; not shown: human Fc
Method: (§1) Anti-PD-1 antibodies were tested in an ELISA assay for their ability to bind to other members of the CD28 family.
(§2) Briefly, ELISA plates were coated with 350 ng/well of one of the following antigens coupled to human Fc in carbonate buffer: human PD-1, human PD-L1, human TIM-3, human LAG-3, human ICOS, human CTLA4, human BTLA, human CD28, mouse TIM-3, or rhesus PD-1. The plate was then blocked with a solution of casein. After extensive washes in PBS Tween-20, antibodies were added into the ELISA wells in the presence of 7% milk in PBS. After 90 minutes at room temperature under agitation and extensive washes, a goat anti-human Fab antibody coupled to HRP was added. One hour later, plates were washed and TMB substrate added. The reaction was stopped with 1M HCl and optical density measured at 450 nm with a reference at 670 nm.

[2] = target: T2, hCTLA4-Fc (human, UniProt P16410); test: as above
T2 construct: also called human CTLA-4; human CTLA4
T2 sequence (P16410 37-162 limits assumed): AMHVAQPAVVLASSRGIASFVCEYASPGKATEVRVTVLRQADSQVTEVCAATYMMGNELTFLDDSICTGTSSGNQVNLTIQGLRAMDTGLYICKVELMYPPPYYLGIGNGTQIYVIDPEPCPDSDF
Method: as §1, §2

[3] = target: T3, human BTLA coupled to human Fc (human, UniProt Q7Z6A9 31-150, limits assumed); test: as above
T3 construct: ELISA coating antigen; not shown: human Fc
T3 sequence (Q7Z6A9 31-150 limits assumed): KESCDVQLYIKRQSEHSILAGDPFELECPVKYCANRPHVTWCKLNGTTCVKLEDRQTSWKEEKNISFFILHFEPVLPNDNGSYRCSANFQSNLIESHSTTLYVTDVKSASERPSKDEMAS
Method: as §1, §2

[4] = target: T4, human TIM-3 coupled to human Fc (human, UniProt Q8TDQ0 22-200, limits assumed); test: as above
T4 construct: not shown: human Fc
Method: as §1, §2

[5] = target: T5, human LAG-3 coupled to human Fc (human, UniProt P18627 23-450, limits assumed); test: as above
T5 construct: ELISA coating antigen; not shown: human Fc
T5 sequence (looked up): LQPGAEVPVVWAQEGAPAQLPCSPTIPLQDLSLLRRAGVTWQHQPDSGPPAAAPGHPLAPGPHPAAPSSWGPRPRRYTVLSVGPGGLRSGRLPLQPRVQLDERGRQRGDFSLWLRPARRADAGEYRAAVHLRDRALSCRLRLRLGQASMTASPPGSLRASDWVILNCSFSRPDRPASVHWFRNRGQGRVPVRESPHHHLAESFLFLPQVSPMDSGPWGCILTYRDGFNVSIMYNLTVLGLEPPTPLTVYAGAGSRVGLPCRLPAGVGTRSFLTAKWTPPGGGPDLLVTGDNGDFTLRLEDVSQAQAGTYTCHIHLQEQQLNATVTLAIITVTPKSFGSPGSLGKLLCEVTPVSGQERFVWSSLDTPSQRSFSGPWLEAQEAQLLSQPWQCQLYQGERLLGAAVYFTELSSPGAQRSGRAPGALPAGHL
Method: as §1, §2

[6] = target: T6, human CD28 coupled to human Fc (human, UniProt P10747 19-152, limits assumed); test: as above
T6 construct: ELISA coating antigen; not shown: human Fc
Method: as §1, §2

[7] = target: T7, mTim3-Fc (mouse, UniProt Q8VIM0); test: as above
T7 construct: also called mouse TIM-3
T7 sequence (Q8VIM0 20-191 limits assumed): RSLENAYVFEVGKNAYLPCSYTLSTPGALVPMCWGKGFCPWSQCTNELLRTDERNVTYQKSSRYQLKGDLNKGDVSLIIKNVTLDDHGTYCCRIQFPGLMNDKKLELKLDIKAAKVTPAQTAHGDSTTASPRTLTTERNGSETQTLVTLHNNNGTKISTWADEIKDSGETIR
Method: as §1, §2

[8] = target: T8, hICOS-Fc (human, UniProt Q9Y6W8); test: as above
T8 construct: also called human ICOS
T8 sequence (antigen, looked up): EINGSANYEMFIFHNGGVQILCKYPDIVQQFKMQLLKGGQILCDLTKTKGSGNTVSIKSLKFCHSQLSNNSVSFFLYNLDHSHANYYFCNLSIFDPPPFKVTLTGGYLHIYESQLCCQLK
Method: as §1, §2

[9] = target: T9, human PD-1 coupled to human Fc (human, UniProt Q15116 25-167, limits assumed); test: SPR (ProteOn XPR36); human PD-1-Fc immobilised, crude Fab extract flown over
T9 construct: also called human-PD-1 coupled to Fc; not shown: human Fc
T9 sequence (Q15116 25-167 limits assumed): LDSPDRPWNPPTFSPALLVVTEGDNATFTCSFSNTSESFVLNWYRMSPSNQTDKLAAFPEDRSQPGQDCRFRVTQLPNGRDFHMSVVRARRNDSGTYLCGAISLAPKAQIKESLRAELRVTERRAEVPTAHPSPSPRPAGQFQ
Method: Briefly, human or mouse PD-1 coupled to human Fc was immobilised on a sensor chip compatible with the Proteon XPR36 bioanalyser (Biorad). Crude Fab extracts (or the control antibodies) were then flown onto the chip and the association/dissociation of each candidate Fab was then recorded and analysed, the affinity (KD) was calculated.

[10] = target: T10, PD-1 on exhausted human T cells (human, UniProt Q15116 25-288); test: flow cytometry (MFI); IgG4 on human T cells activated 7 days with allogeneic DCs, fluorescent secondary antibody
T10 construct: whole, on cells; T cells exhausted by 7 days of culture with allogeneic monocyte-derived dendritic cells
T10 sequence (Q15116 25-288): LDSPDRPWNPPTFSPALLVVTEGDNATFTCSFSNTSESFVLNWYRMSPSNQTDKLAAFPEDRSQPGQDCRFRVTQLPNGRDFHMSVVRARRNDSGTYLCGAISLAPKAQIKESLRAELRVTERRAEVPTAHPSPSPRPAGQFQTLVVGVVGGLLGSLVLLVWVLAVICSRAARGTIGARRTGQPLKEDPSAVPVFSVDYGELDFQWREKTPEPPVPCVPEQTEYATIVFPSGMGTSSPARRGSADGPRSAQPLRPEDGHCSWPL
Method: 50,000 T cells isolated from a healthy donor were incubated in the presence of 5,000 monocyte-derived DCs from another donor for 7 days at 37° C. Antibodies, expressed as IgG4, were incubated with such activated T cells for 30 minutes in PBS. After a wash in PBS, a fluorescent labelled secondary antibody was added for 30 minutes and then washed in PBS. Cells were resuspended in FACS buffer and binding of the antibody to the cells was monitored by flow cytometry (FIGS. 6 and 7).

T1 sequence (Q9NZQ7 19-239 limits assumed): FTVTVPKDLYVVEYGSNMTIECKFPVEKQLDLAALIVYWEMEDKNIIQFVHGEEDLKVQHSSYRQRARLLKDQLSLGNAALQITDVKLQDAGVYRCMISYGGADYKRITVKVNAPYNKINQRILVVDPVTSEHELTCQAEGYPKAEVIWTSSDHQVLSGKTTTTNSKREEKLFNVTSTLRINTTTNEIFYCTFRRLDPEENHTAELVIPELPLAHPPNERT

B1: anti-PD-1 antibody clone G2 (Fab) (Fab, V domains shown)
VH: QVQLVESGGGVVQPGRSLRLSCAASGFTFSSYGMHWVRQAPGKGLEWVAVISYDGSNKYYADSVKGRFTISRDNSKNTLYLQMNSLRAEDTAVYYCASDLGAGPYYYGMDVWGQGTTVTVSS
VL: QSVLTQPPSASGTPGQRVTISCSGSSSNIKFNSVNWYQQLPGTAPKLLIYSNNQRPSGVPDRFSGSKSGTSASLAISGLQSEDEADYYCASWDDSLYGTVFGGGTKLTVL
notes: Crude Fab extract in SPR
binding result [1]: no binding (tested: not given)
binding result [2]: no binding (tested: not given)
binding result [3]: no binding (tested: not given)
binding result [4]: no binding (tested: not given)
binding result [5]: no binding (tested: not given)
binding result [6]: no binding (tested: not given)
binding result [7]: no binding (tested: not given)
binding result [8]: no binding (tested: not given)
Kd [9]: 0.1 nM

B2: anti-PD-1 antibody clone A3 (Fab) (Fab, V domains shown)
VH: B1 VH with E6Q, M109K, V111H
VL: LPVLTQPPSASGTPGQRVTISCSGSSSNIKFNSVNWYQQLPGTAPKLLIYSNNQRPSGVPDRFSGSKSGTSASLAISGLQSEDEADYFCASWDDVLYGSVFGGGTKLTVL
notes: Flown as crude Fab extract in SPR
binding result [1]: no binding (tested: not given)
binding result [2]: no binding (tested: not given)
binding result [3]: no binding (tested: not given)
binding result [4]: no binding (tested: not given)
binding result [5]: no binding (tested: not given)
binding result [6]: no binding (tested: not given)
binding result [7]: no binding (tested: not given)
binding result [8]: no binding (tested: not given)
Kd [9]: 0.2 nM

B3: anti-PD-1 antibody clone A10 (Fab) (Fab, V domains shown)
VH: B1 VH with E6Q, M109K
VL: B2 VL with V95Y, L96Y, S99T, V100I
notes: Crude Fab extract in SPR
binding result [1]: no binding (tested: not given)
binding result [2]: no binding (tested: not given)
binding result [3]: no binding (tested: not given)
binding result [4]: no binding (tested: not given)
binding result [5]: no binding (tested: not given)
binding result [6]: no binding (tested: not given)
binding result [7]: no binding (tested: not given)
binding result [8]: no binding (tested: not given)
Kd [9]: 0.08 nM

B4: anti-PD-1 antibody clone F2 (Fab) (Fab, V domains shown)
VH: B1 VH
VL: B2 VL with L1Q, P2S, F88Y, A90S, V95D, L96A, Y97R, S99T, V100I
notes: Crude Fab extract in SPR
binding result [1]: no binding (tested: not given)
binding result [2]: no binding (tested: not given)
binding result [3]: no binding (tested: not given)
binding result [4]: no binding (tested: not given)
binding result [5]: no binding (tested: not given)
binding result [6]: no binding (tested: not given)
binding result [7]: no binding (tested: not given)
binding result [8]: no binding (tested: not given)
Kd [9]: 0.11 nM

B5: anti-PD-1 antibody clone G1 (Fab) (Fab, V domains shown)
VH: B1 VH
VL: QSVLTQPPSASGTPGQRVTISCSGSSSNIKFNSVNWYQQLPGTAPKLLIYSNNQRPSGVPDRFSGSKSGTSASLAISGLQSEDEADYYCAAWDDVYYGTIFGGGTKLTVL
notes: Crude Fab extract in SPR
binding result [1]: no binding (tested: not given)
binding result [2]: no binding (tested: not given)
binding result [3]: no binding (tested: not given)
binding result [4]: no binding (tested: not given)
binding result [5]: no binding (tested: not given)
binding result [6]: no binding (tested: not given)
binding result [7]: no binding (tested: not given)
binding result [8]: no binding (tested: not given)
Kd [9]: 0.1 nM

B6: anti-PD-1 antibody clone H4 (Fab) (Fab, V domains shown)
VH: B1 VH with A102S, P104Y, Y106L
VL: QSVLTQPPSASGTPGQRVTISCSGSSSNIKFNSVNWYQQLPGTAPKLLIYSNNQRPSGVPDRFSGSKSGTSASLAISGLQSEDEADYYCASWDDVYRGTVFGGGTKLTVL
notes: Crude Fab extract in SPR
binding result [1]: no binding (tested: not given)
binding result [2]: no binding (tested: not given)
binding result [3]: no binding (tested: not given)
binding result [4]: no binding (tested: not given)
binding result [5]: no binding (tested: not given)
binding result [6]: no binding (tested: not given)
binding result [7]: no binding (tested: not given)
binding result [8]: no binding (tested: not given)
Kd [9]: 0.27 nM

B7: anti-PD-1 antibody clone H9 (Fab) (Fab, V domains shown)
VH: B1 VH
VL: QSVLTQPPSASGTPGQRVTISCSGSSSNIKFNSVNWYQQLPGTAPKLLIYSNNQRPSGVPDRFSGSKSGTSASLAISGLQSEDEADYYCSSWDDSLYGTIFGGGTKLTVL
notes: Crude Fab extract in SPR
binding result [1]: no binding (tested: not given)
binding result [2]: no binding (tested: not given)
binding result [3]: no binding (tested: not given)
binding result [4]: no binding (tested: not given)
binding result [5]: no binding (tested: not given)
binding result [6]: no binding (tested: not given)
binding result [7]: no binding (tested: not given)
binding result [8]: no binding (tested: not given)

B8: G2 (antibody, IgG4, V domains shown)
VH: B1 VH
VL: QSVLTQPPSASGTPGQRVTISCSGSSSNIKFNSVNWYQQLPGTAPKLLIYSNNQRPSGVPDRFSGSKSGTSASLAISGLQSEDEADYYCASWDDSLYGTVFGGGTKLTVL
notes: also called anti-PD-1 antibody clone G2 (human IgG4)
EC50 [10]: 0.78 nM

B9: B6 (antibody, IgG4, V domains shown)
VH: B1 VH with L100Y
VL: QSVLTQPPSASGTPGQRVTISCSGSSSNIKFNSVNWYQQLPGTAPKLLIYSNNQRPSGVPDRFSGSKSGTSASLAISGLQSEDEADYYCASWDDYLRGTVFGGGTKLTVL
notes: also called anti-PD-1 antibody clone B6 (human IgG4)
EC50 [10]: 0.158 nM

B10: C4 (antibody, IgG4, V domains shown)
VH: B1 VH with M109L
VL: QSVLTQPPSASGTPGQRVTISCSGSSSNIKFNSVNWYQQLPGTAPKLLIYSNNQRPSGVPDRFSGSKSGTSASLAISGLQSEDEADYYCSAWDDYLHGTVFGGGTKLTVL
notes: also called anti-PD-1 antibody clone C4 (human IgG4)
EC50 [10]: 0.281 nM

B11: D4 (antibody, IgG4, V domains shown)
VH: B1 VH
VL: B2 VL with L1Q, P2S, F88Y, V95Y, L96V, Y97R, S99T, V100M
notes: also called anti-PD-1 antibody clone D4 (human IgG4)
EC50 [10]: 0.318 nM

B12: E1 (antibody, IgG4, V domains shown)
VH: B1 VH
VL: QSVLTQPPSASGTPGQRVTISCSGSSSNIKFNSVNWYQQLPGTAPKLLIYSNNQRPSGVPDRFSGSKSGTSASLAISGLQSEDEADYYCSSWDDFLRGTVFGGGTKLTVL
notes: also called anti-PD-1 antibody clone E1 (human IgG4)
EC50 [10]: 0.542 nM

B13: F2 (antibody, IgG4, V domains shown)
VH: B1 VH
VL: B2 VL with L1Q, P2S, F88Y, A90S, V95D, L96A, Y97R, S99T, V100I
notes: also called anti-PD-1 antibody clone F2 (human IgG4)
EC50 [10]: 0.446 nM

B14: G1 (antibody, IgG4, V domains shown)
VH: B1 VH
VL: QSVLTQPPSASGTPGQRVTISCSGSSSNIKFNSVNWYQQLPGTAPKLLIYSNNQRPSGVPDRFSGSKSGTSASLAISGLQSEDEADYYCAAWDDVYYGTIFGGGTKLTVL
notes: also called anti-PD-1 antibody clone G1 (human IgG4)
EC50 [10]: 0.738 nM

B15: G10 (antibody, IgG4, V domains shown)
VH: B1 VH with L100Y
VL: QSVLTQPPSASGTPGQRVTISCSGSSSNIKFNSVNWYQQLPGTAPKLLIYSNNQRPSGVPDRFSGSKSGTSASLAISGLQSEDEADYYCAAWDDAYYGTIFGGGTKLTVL
notes: also called anti-PD-1 antibody clone G10 (human IgG4)
EC50 [10]: 0.532 nM

B16: H4 (antibody, IgG4, V domains shown)
VH: B1 VH with A102S, P104Y, Y106L
VL: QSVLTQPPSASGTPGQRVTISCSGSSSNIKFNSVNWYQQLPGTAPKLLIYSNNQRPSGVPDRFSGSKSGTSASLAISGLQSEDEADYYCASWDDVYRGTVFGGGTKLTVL
notes: also called anti-PD-1 antibody clone H4 (human IgG4)
EC50 [10]: 0.189 nM

B17: H9 (antibody, IgG4, V domains shown)
VH: B1 VH
VL: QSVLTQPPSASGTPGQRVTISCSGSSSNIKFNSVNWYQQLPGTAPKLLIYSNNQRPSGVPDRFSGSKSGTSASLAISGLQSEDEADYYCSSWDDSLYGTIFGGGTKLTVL
notes: also called anti-PD-1 antibody clone H9 (human IgG4)
EC50 [10]: 0.375 nM
